For test [1], the target named is ATP synthase from mitochondria of Zea mays (Z. mays (endogenous in mitochondria)). In words: single particle electron microscopy.
Test [2] addresses Complex III2 from potato (potato).

As usually defined, the stoichiometry N is a count of units in the complex or per binding partner. For “ATP synthase from mitochondria of Zea mays (complex)”, the stoichiometry N in test [1] is 2. Complex I from potato yielded a stoichiometry N in test [2] of 2.

The values above are taken from paper PMC2780661.
